Substitutions are numbered along the chain they refer to.
B1: mAb 8F24 (antibody, V domains shown)
VH: EVQLLESGGGLVQPGGSLRLSCAASGFAFSSYGMSWVRQAPGKGLEWVSAFSGSGTSTYYADSVKGRFTISRDKSKNTLYLQMNSLRAEDTAIYYCAKPPGPYIVVAGLFENWGRGTLVTVS
VL: EIVMTQSPATLSVSPGERVTLSCRASQSITDGLAWYQQKSGQAPRLLIYGASTRATGIPARFSGSGSGTEFTLTISSLQSEDFAVYYCQQYNNWPPVTFGQGTKVEIKR
B2: mAb 25F7 (antibody, V domains shown)
VH: B1 VH
VL: QSVLTQPPSVSGAPGQRVTISCTGTSSNIGAGYEVHWYQQLPGTAPKLIINANTNRPSGVPDRFSGSQSGTSASLAITGLRAEDEADYYCQSFDSSLSGWLFGGGTKLTVLG
B3: mAb 18G6 (antibody, V domains shown)
VH: QVQLKESGPGLVKPSETLSLTCTVSGGSISSSNYNWGWIRQPPGKGLEWIGSVYYSGSTYFNPSLKSRVTISVDTSKNQFSLKLTSVTAADTAVYYCARLIAFYYDTNGYTWGQGTLVTVS
VL: NSIMTQSPFTLSASVGDKVTITCRASQSISPWLAWYQQKPGKAPKLLIYKASSLETGVPSRFSGSESGTEFTLTISGLQPDDFATYYCQQYSSFARTFGQGTKVEIKR
B4: mAb 25J3 (antibody, V domains shown)
VH: QVQLQESGPGLVRPSETLSLTCNVSGDSINDYYWSWIRQPPGKGLEWIGYIYYSGSTNYNPSLNSRVTISVEMSKNQFSLILNSVTAADTAVYYCARVDYDSGGSFDPWGQGTLVTVS
VL: QSVLTQPPSVSGAPGQRVTISCTGSSSNIGAGYDVHWYQQLPGTAPKLLIYGNSNRPSGVPDRFSGSKSGTSASLAITGLQAEDEADFYCQSYDSRLSGYVFGTGTKVTVLG
B5: mAb 3J10 (antibody, V domains shown)
VH: EVQLVESGGGVVQPGRSLRLSCAASGFSFSNYAMHWVRQAPGKGLEWVALISFDGSDKYYADSVKGRFTMSRDNSKNTLYLQMNSLRAEDTAVYYCARDEPYCGGDCFAFDVWGQGTMVTVS
VL: B4 VL with G52A, S54N, F88Y, R96S, Y100G, K107T
B6: mAb 6K14 (antibody, V domains shown)
VH: EVQLVESGAEVKKPGASVKVSCKASGYTFTSFDINWVRQAPGQGLEWMGWMTPTSGKTGYAQKFQGRITMTRNTSINTAYMELSSLRSEDTAVYFCARGPERRTTIFDVILDWFDPWGQGTLVTVS
VL: DIVMTQSPFSLSLSPGERATLSCRASQSISNYLAWYQQKPGQAPRLLIYDSSNRATGVPARFSGSGSGTDFTLTISSLEPEDFAVYYCQQRSNWMYTFGQGTKVEIKR
B7: mAb 5J8 (antibody, V domains shown)
VH: EVQLVESGPGLVKPSDILSLTCAVSGYSISSNYYWGWIRQPPGKGLEWIGSIYHSGSTYYKPSLESRLGISVDTSKNQFSLKLSFVSAADTAVYYCARHVRSGYPDTAYYFDKWGQGTLVTVS
VL: SYVLTQPPSVSVAPGETARISCGGNNIGTKVLHWYQQTPGQAPVLVVYDDSDRPSGIPERFSGSNSGNTATLTISRVEVGDEADYYCQVWDISTDQAVFGGGTKLTVLG
B8: 5J8 Fab (Fab, V domains shown)
VH: B7 VH
VL: B7 VL
B9: mAb 2K11 (antibody, V domains shown)
VH: EVQLVESGGGLVQPGGSLRLSCVASTFSLINYWMTWVRQAPGKGLEWVANIKQDGFEKYYVDSVKGRFTISRDNAKNSLYLQMNSLRVEDTAVYYCARQGSYADTYFYHYGMDVWGQGTTVTVS
VL: QSALTQPPSVSGAPGQRVTISCTGSSSNIGAGYDAYWYQQLPGTAPKLLIYGNSNRLSGVPDRFSASKSGTSASLAITGLQAEDEADYYCQSYDSSLSIFGGGTKLTVLR
B10: mAb 3E22 (antibody, V domains shown)
VH: EVQLVESGAEVKKPGASVKVSCKASGYTFSRYYIHWVRQAPGQELEWMGWINPDSGDTNYAQKFRGRVTMARDTSISTVYMELNSLRYDDTAVYFCARIIWSSSGMDVWGQGTTVTVS
VL: QSALTQPASVSGSPGQSITISCTGTSSDVGSYNLVSWYQQHPGKAPKLMIYEVSKRPSGVSNRFSGSKSGNTASLTISGLQAEDEADYYCHLYVGSSNWVFGGGTKLAVLG
B11: mAb 11J19 (antibody, V domains shown)
VH: EVQLQESGPGLVKPSETLSLSCTVSGGSITRSSYYWGWIRQPPGKGLEWIGNIYYSGTTYYNPSLKSRVTISVDTSKNQFSLKLSSVTAADTAVYYCARLYGSGLDYWGQGTLVTVS
VL: DIQLTQSPSFLSASVGDRVTITCRASQGSSRYVAWYQQKPGKAPKLLILAASTLHTGVPSRFSGSGSGTEFTLTISSLQPEDFATYSCQQLNGFLLTFGGGTKVEIKR
B12: mAb 2O10 (antibody, V domains shown)
VH: EVQLVESGGGLVQPGGSLRLSCAASGFTFNSYWMTWVRQAPGKGLEWVANINQDGSEKFFVDSVKGRFTISRDNAKTSLYLQMNSLRVEDTAVYYCAREGAPYDTYYYYYAMDVWGQGTTVTVS
VL: QSVLTQPPSVSGAPGQRVTISCTGTSSNIGAGYGVHWYQQLPGAAPKLLVYGNSNRPSGVPDRFSGSKSGTSASLAITGLQAEDEADYYCQSYDISLSGSNVFGTGTKVTVLG
B13: mAb 10E15 (antibody, V domains shown)
VH: EVQLLESGGGVVQPGRSLRLSCAASGFTFRTYGMHWVRQAPGKGLEWVAVISHDGNLKYYGGSVKGRFTISRDNSKNALYLQMNSLRVDDTALYYCARGIGITDAFDIRGQGTMVVVS
VL: QSVLTQPPSVSAAPGQKVTISCSGSSSNIGKNYVSWYQQLPGTAPKLLIYDNDKRPSGIPDRFSGSKSGTSATLGITGLQTGDEADYHCGAWDSSLNGGVFGGGTKVTVLG

What was measured:
[1] = biological target: soluble 2004 H5 HA (Influenza A virus (H5N1, 2004)); assay: ELISA, supernate
[2] = biological target: recombinant soluble 1957 H2 HA (A/Japan/305+/1957) (Influenza A virus A/Japan/305+/1957 (H2N2)); assay: ELISA, supernate
[3] = biological target: recombinant soluble trimeric 1918 H1 HA (A/South Carolina/1/1918, wild type) (Influenza A virus A/South Carolina/1/1918 (H1N1)) (UniProt Q9WFX3); assay: ELISA, supernate
[4] = biological target: recombinant soluble 1968 H3 HA (A/Aichi/2/1968) (Influenza A virus A/Aichi/2/1968 (H3N2)) (UniProt P03437); assay: ELISA, supernate
[5] = biological target: recombinant soluble trimeric 2009 H1 HA (A/California/04/2009, wild type) (Influenza A virus A/California/04/2009 (H1N1)); assay: ELISA, supernate
[6] = biological target: soluble 1999 H1 HA (seasonal 1999 H1N1) (Influenza A virus (H1N1, 1999)); assay: ELISA, supernate; also: test concentration or dose not given here
[7] = biological target: recombinant soluble trimeric 2009 H1 HA (A/California/04/2009, wild type) (Influenza A virus A/California/04/2009 (H1N1)); assay: biolayer interferometry (Octet Red), His-tagged HA on anti-Penta-HIS tips

| Binder | OD [1] | OD [2] | OD [3] | OD [4] | OD [5] | OD [6] | Kd [7] | koff [7] | kon [7] |
| --- | --- | --- | --- | --- | --- | --- | --- | --- | --- |
| B1 | 0.074 OD | 0.073 OD | 0.209 OD | 0.669 OD | 0.714 OD | 1.01 OD |  |  |  |
| B2 | 0.076 OD | 0.871 OD | 0.075 OD | 0.085 OD | 0.078 OD | 0.077 OD |  |  |  |
| B3 | 0.071 OD | 0.757 OD |  |  | 0.071 OD | 0.071 OD |  |  |  |
| B4 | 0.07 OD | 0.07 OD |  |  | 0.071 OD | 0.071 OD |  |  |  |
| B5 | 0.075 OD | 0.074 OD | 0.069 OD | 0.076 OD | 0.073 OD | 0.711 OD |  |  |  |
| B6 | 1.12 OD | 1.93 OD |  |  | 2.12 OD | 0.203 OD |  |  |  |
| B7 | 0.077 OD | 0.077 OD |  |  | 1.93 OD | 1.46 OD |  |  |  |
| B8 |  |  |  |  |  |  | 26 nM | 0.0065 s⁻¹ | 250000 M⁻¹ s⁻¹ |
| B9 | 0.075 OD | 0.08 OD |  |  | 1.28 OD | 0.518 OD |  |  |  |
| B10 | 1.57 OD | 1.18 OD |  |  | 2.38 OD | 2.06 OD |  |  |  |
| B11 | 0.067 OD | 0.079 OD |  |  | 0.081 OD | 0.071 OD |  |  |  |
| B12 | 0.072 OD | 0.073 OD |  |  | 1.62 OD | 0.872 OD |  |  |  |
| B13 | 1.69 OD | 0.485 OD |  |  | 0.996 OD | 0.514 OD |  |  |  |

Source: patent US20130289246A1
